Data taken from the supplement of paper PMC10899765.

Each sequence was assayed on MCF10A (assay: percent viability (nuclei count relative to siNT); higher = more viable cells). Details: 20 nM; 72 h.
Protocol: (§1)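 After 72 h, cells were fixed and stained with Hoechst and anti-fibrillarin, and nucleoli per nucleus were counted with CellProfiler. Values are plate-adjusted percent effect for the one-nucleolus and 5+ nucleoli phenotypes, normalised to siNT (0%) and to the positive controls siNOL11 or siKIF11 (100%), as the mean of biological triplicates. Percent viability is the nuclei count relative to siNT.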

Going from “UUCUCAAGGAGGUGUCGUUUAU [hsa-miR-513c-5p]” to AUGGAAUGUAUAUACGGAAUA [hsa-miR-3673], the percent viability rises from 30% to 35.7%.

First: UUGCAGCUGCGGUUGUAAGGU [hsa-miR-5047]
Second: UCUGCCCCCUCCGCUGCUGCCA [hsa-miR-1913]
The percent viability of the first is lower: 36.3% for the first, 88.8% for the second.

Going from “AAAGACAUAGUUGCAAGAUGGG [hsa-miR-3617-5p]” to CAGCAGGAGGUGAGGGGAG [hsa-miR-6165], the percent viability falls from 188% to 101%.

Going from UGAGGCAGUAGAUUGAAU [hsa-miR-1827] to UGCUGAUGGCAGAUGUCGGGUCUG [hsa-miR-8075], the percent viability rises from 16.7% to 20.8%.

Compared with CGGGACUGUAGAGGGCAUGAGC [hsa-miR-8052], AAUCGGACCCAUUUAAACCGGAG [hsa-miR-5188] is higher in percent viability: 42.4% for the first, 90.7% for the second.

Going from CAAAGAGGAAGGUCCCAUUAC [hsa-miR-583] to “AUGCUACUCGGAAAUCCCACUGA [hsa-miR-5089-3p]”, the percent viability falls from 69.2% to 47.3%.

Compared with “GUAGAUUCUCCUUCUAUGAGUA [hsa-miR-376a-5p]”, “UGUCUUUCUUCUCUCCCUUGCAG [hsa-miR-6830-3p]” is lower in percent viability: 24.5% for the first, 19.9% for the second.

Compared with AGAAGGGGUGAAAUUUAAACGU [hsa-miR-3179], CGGGGUCGGCGGCGACGUG [hsa-miR-7704] is higher in percent viability: 18.1% for the first, 38.3% for the second.

Compared with “UUGGUGAGGACCCCAAGCUCGG [hsa-miR-7855-5p]”, CUUGGUUCAGGGAGGGUCCCCA [hsa-miR-659-3p] is higher in percent viability: 7.91% for the first, 34.6% for the second.

Going from “AGGGCUGGACUCAGCGGCGGAGCU [hsa-miR-5001-5p]” to UCUUUGGUUAUCUAGCUGUAUGA [hsa-miR-9-5p], the percent viability rises from 42.6% to 54.9%.

First: AGAGCUGAGACUAGAAAGCCCA [hsa-miR-3160-3p]
Second: UGGCUUUUAACUUUGAUGGC [hsa-miR-3119]
The percent viability of the first is higher: 19.1% for the first, 17.4% for the second.

First: GUGACAUCACAUAUACGGCAGC [hsa-miR-489]
Second: AUCGCUGCGGUUGCGAGCGCUGU [hsa-miR-639]
The percent viability of the first is lower: 22.4% for the first, 129% for the second.

“UCUACAGUGCACGUGUCUCCAGU [hsa-miR-139-5p]” gave a percent viability of 67.5%.

What follows are sequences tested on MCF10A (assay: one-nucleolus phenotype percent effect (relative to siNT 0% and siNOL11 100%); higher = more cells with one nucleolus (ribosome biogenesis inhibition)). Details: 20 nM; 72 h.
Protocol: as §1

Compared with “UUCUCAAGGAGGUGUCGUUUAU [hsa-miR-513c-5p]”, AUGGAAUGUAUAUACGGAAUA [hsa-miR-3673] is higher in “one-nucleolus phenotype percent effect” value: 19.8% for the first, 63.4% for the second.

First: UUGCAGCUGCGGUUGUAAGGU [hsa-miR-5047]
Second: UCUGCCCCCUCCGCUGCUGCCA [hsa-miR-1913]
The “one-nucleolus phenotype percent effect” value of the first is higher: 11.1% for the first, -11.1% for the second.

First: AAAGACAUAGUUGCAAGAUGGG [hsa-miR-3617-5p]
Second: CAGCAGGAGGUGAGGGGAG [hsa-miR-6165]
The “one-nucleolus phenotype percent effect” value of the first is lower: -28.6% for the first, -18.4% for the second.

Compared with UGAGGCAGUAGAUUGAAU [hsa-miR-1827], UGCUGAUGGCAGAUGUCGGGUCUG [hsa-miR-8075] is lower in “one-nucleolus phenotype percent effect” value: 60.2% for the first, 44.2% for the second.

First: CGGGACUGUAGAGGGCAUGAGC [hsa-miR-8052]
Second: AAUCGGACCCAUUUAAACCGGAG [hsa-miR-5188]
The “one-nucleolus phenotype percent effect” value of the first is higher: 4.6% for the first, -9.59% for the second.

Going from CAAAGAGGAAGGUCCCAUUAC [hsa-miR-583] to “AUGCUACUCGGAAAUCCCACUGA [hsa-miR-5089-3p]”, the “one-nucleolus phenotype percent effect” value falls from 27.5% to 12.4%.

First: GUAGAUUCUCCUUCUAUGAGUA [hsa-miR-376a-5p]
Second: UGUCUUUCUUCUCUCCCUUGCAG [hsa-miR-6830-3p]
The “one-nucleolus phenotype percent effect” value of the first is lower: -7.97% for the first, 58% for the second.

Compared with AGAAGGGGUGAAAUUUAAACGU [hsa-miR-3179], CGGGGUCGGCGGCGACGUG [hsa-miR-7704] is lower in “one-nucleolus phenotype percent effect” value: 60.8% for the first, -0.45% for the second.

Compared with “UUGGUGAGGACCCCAAGCUCGG [hsa-miR-7855-5p]”, CUUGGUUCAGGGAGGGUCCCCA [hsa-miR-659-3p] is lower in “one-nucleolus phenotype percent effect” value: 73.9% for the first, 37.6% for the second.

First: AGGGCUGGACUCAGCGGCGGAGCU [hsa-miR-5001-5p]
Second: UCUUUGGUUAUCUAGCUGUAUGA [hsa-miR-9-5p]
The “one-nucleolus phenotype percent effect” value of the first is higher: 23.3% for the first, 20.5% for the second.

Going from “AGAGCUGAGACUAGAAAGCCCA [hsa-miR-3160-3p]” to UGGCUUUUAACUUUGAUGGC [hsa-miR-3119], the “one-nucleolus phenotype percent effect” value rises from 23.1% to 56.7%.

Compared with GUGACAUCACAUAUACGGCAGC [hsa-miR-489], AUCGCUGCGGUUGCGAGCGCUGU [hsa-miR-639] is lower in “one-nucleolus phenotype percent effect” value: 53.7% for the first, -17.2% for the second.

For “UCUACAGUGCACGUGUCUCCAGU [hsa-miR-139-5p]”, the “one-nucleolus phenotype percent effect” value was -8.78%.

The sequences below were run on MCF10A (assay: 5+ nucleoli phenotype percent effect (relative to siNT 0% and siKIF11 100%); higher = more cells with five or more nucleoli). Details: 20 nM; 72 h.
Protocol: as §1

Compared with “UUCUCAAGGAGGUGUCGUUUAU [hsa-miR-513c-5p]”, AUGGAAUGUAUAUACGGAAUA [hsa-miR-3673] is lower in “5+ nucleoli phenotype percent effect” value: 3.99% for the first, -48.6% for the second.

Compared with UUGCAGCUGCGGUUGUAAGGU [hsa-miR-5047], UCUGCCCCCUCCGCUGCUGCCA [hsa-miR-1913] is higher in “5+ nucleoli phenotype percent effect” value: -30.3% for the first, 54.4% for the second.

Compared with “AAAGACAUAGUUGCAAGAUGGG [hsa-miR-3617-5p]”, CAGCAGGAGGUGAGGGGAG [hsa-miR-6165] is lower in “5+ nucleoli phenotype percent effect” value: 37.2% for the first, 36.7% for the second.

First: UGAGGCAGUAGAUUGAAU [hsa-miR-1827]
Second: UGCUGAUGGCAGAUGUCGGGUCUG [hsa-miR-8075]
The “5+ nucleoli phenotype percent effect” value of the first is higher: -33.8% for the first, -34.6% for the second.

First: CGGGACUGUAGAGGGCAUGAGC [hsa-miR-8052]
Second: AAUCGGACCCAUUUAAACCGGAG [hsa-miR-5188]
The “5+ nucleoli phenotype percent effect” value of the first is higher: 28.9% for the first, 10.2% for the second.

Going from CAAAGAGGAAGGUCCCAUUAC [hsa-miR-583] to “AUGCUACUCGGAAAUCCCACUGA [hsa-miR-5089-3p]”, the “5+ nucleoli phenotype percent effect” value falls from -24.7% to -30.6%.

First: GUAGAUUCUCCUUCUAUGAGUA [hsa-miR-376a-5p]
Second: UGUCUUUCUUCUCUCCCUUGCAG [hsa-miR-6830-3p]
The “5+ nucleoli phenotype percent effect” value of the first is higher: 11.8% for the first, -30.3% for the second.

First: AGAAGGGGUGAAAUUUAAACGU [hsa-miR-3179]
Second: CGGGGUCGGCGGCGACGUG [hsa-miR-7704]
The “5+ nucleoli phenotype percent effect” value of the first is lower: -30.9% for the first, 9.03% for the second.

First: UUGGUGAGGACCCCAAGCUCGG [hsa-miR-7855-5p]
Second: CUUGGUUCAGGGAGGGUCCCCA [hsa-miR-659-3p]
The “5+ nucleoli phenotype percent effect” value of the first is lower: -27.6% for the first, -6.48% for the second.

First: AGGGCUGGACUCAGCGGCGGAGCU [hsa-miR-5001-5p]
Second: UCUUUGGUUAUCUAGCUGUAUGA [hsa-miR-9-5p]
The “5+ nucleoli phenotype percent effect” value of the first is higher: -6.45% for the first, -15.1% for the second.

Going from “AGAGCUGAGACUAGAAAGCCCA [hsa-miR-3160-3p]” to UGGCUUUUAACUUUGAUGGC [hsa-miR-3119], the “5+ nucleoli phenotype percent effect” value falls from -5.31% to -21.8%.

Going from GUGACAUCACAUAUACGGCAGC [hsa-miR-489] to AUCGCUGCGGUUGCGAGCGCUGU [hsa-miR-639], the “5+ nucleoli phenotype percent effect” value rises from -33.1% to 61.4%.

“UCUACAGUGCACGUGUCUCCAGU [hsa-miR-139-5p]” was tested, and the “5+ nucleoli phenotype percent effect” value was -2.1%.
